# No end group written: not given here. SUMO = small ubiquitin-like modifier
# B1: SUMO-AtFBA4 (Arabidopsis fructose bisphosphate aldolase 4 with N-terminal His-SUMO tag) (enzyme, Arabidopsis thaliana, UniProt F4KGQ0 1-393, looked up)
# chain: MSCFKSKFAGKSYFRRTFHSSIIQFHPQLSILIWHRRYSIIRTYELIANAAYIGTPGKGILAADESTGTIGKRFVSINVENVESNRRALRELLFTTPGALQYISGIILFEETLYQKTASGKLFVDVMKEAGVLPGIKVDKGTVELAGTNGETTTTGLDGLGDRCKKYYEAGARFAKWRAVLKIGNNEPSELAIHENAYGLARYAVICQENGLVPIVEPEILVDGSHDIEKCAYVTERVLAACYKALSDHHVILEGTLLKPNMVTPGSDSGSKVKPEVIAKHTVRALQRTVPAAVPAVVFLSGGQSEEEATVNLNAINQLKGKKPWSLTFSYGRALQQSTLKAWGGKEENVDKAQKAFLARAKANSEATLGGYKGDAQLGEGASESLHVKDYKY
# B2: SUMO-AtFBA5 CaMBD (residues 194-213) (domain or fragment)
# chain: {SUMO}-IKKCAAVTETVLAAVYKALN
# modifications: not fully specified
# B3: SUMO-AtFBA5 (Arabidopsis fructose bisphosphate aldolase 5 with N-terminal His-SUMO tag) (enzyme, Arabidopsis thaliana, UniProt O65581 1-358, looked up)
# chain: MSAFVGKYADELIKTAKYIATPGKGILAADESTGTIGKRFASINVENIESNRQALRELLFTSPGTFPCLSGVILFEETLYQKTTDGKPFVELLMENGVIPGIKVDKGVVDLAGTNGETTTQGLDSLGARCQEYYKAGARFAKWRAVLKIGATEPSELSIQENAKGLARYAIICQENGLVPIVEPEVLTDGSHDIKKCAAVTETVLAAVYKALNDHHVLLEGTLLKPNMVTPGSDSPKVAPEVIAEYTVTALRRTVPPAVPGIVFLSGGQSEEEATLNLNAMNKLDVLKPWTLTFSFGRALQQSTLKAWAGKTENVAKAQATFLTRCKGNSDATLGKYTGGASGDSAASESLYEEGYKY
# How the values were obtained:
# SEC = molecular target: the molecule itself; test: SEC
# dansylated CaM7 = dansylated CaM7 (Arabidopsis thaliana, UniProt P59220 1-149, dansyl (labelled with dansyl chloride; sites not stated)); test: other fluorescence titration
Binder,stoichiometry N (SEC),Kd (dansylated CaM7) [nM]
B1,4,
B2,,290 ± 130
B3,4,190
